# Test results from US20250304711A1, “Methods and Compositions for Treating Obesity, Obesity-Related Diseases, Fatty Liver and Fatty Liver Associated Diseases with Anti-CD24 Agents” (The Board of Trustees of the Leland Stanford Junior …, priority 2022, published 2025).
# B1: MOSW3: SWA11 mouse IgG2a, C1q and Fc silenced (L234A, L235A, K320A, K322A, P329G); SEQ ID NO: 17 and 34 (antibody)
# heavy: DVQLQESGPDLVKPSQSLSLTCTVTGYSITSGYTWHWIRQFPGNTVEWMGYIQYTGSTRYNPALRGRLSISRDTSKNQFFLQLISVTTADTGTYFCARGTTASFDYWGQGTTLTVASAKTTAPSVYPLAPVCGDTTGSSVTLGCLVKGYFPEPVTLTWNSGSLSSGVHTFPAVLQSDLYTLSSSVTVTSSTWPSQSITCNVAHPASSTKVDKKIEPRGPTIKPCPPCKCPAPNAAGGPSVFIFPPKIKDVLMISLSPIVTCVVVDVSEDDPDVQISWFVNNVEVHTAQTQTHREDYNSTLRVVSALPIQHQDWMSGKEFACAVNNKDLGAPIERTISKPKGSVRAPQVYVLPPPEEEMTKKQVTLTCMVTDFMPEDIYVEWTNNGKTELNYKNTEPVLDSDGSYFMYSKLRVEKKNWVERNSYSCSVVHEGLHNHHTTKSFSRTPGK
# light: DIVMSQSPSSLNVSVGEKVTMRCRSSQSLLYSSDQKNYLTWYQQKPGQSPKLLISWASTRASGVPDRFTGSGSGTDFTLTISSVKAEDLGVYYCQQYFIYPLTFGVGTKLGLKRADAAPTVSIFPPSSEQLTSGGASVVCFLNNFYPKDINVKWKIDGSERQNGVLNSWTDQDSKDSTYSMSSTLTLTKDEYERHNSYTCEATHKTSTSPIVKSFNRNEC
# Assays:
# Huh7D cells = assay: Steatosis in Huh7D cells cultured in fatty medium, Nile Red stain; assay type: cell-based; conditions: Huh7D cells 4 days in fatty medium, then treated 3 days in fatty medium; Nile Red fluorescence; agents at 1 μg/mL unless otherwise specified
# Protocol: FIG. 1A-1D: Relative lipid accumulation of Huh 7D cells when cultured on fatty medium and treated with various anti-CD24 agents. Agents were added at 1 μg/mL unless otherwise specified as in the Fab. MOSW1, SWA11, ML5, SN3: mouse anti human CD24 antibodies; MOSW2: SWA11 antibody with point mutations to silent complement activity; MOSW3: SWA11 antibody with point mutations to silent complement activity, antibody-dependent cytotoxicity (ADCC) and antibody-dependent cellular phagocytosis (ADCP); Fab: Fab of SWA11 antibody, G7s: scFv against human and mouse CD24; TW2, TW6, V2, V3, V4, V6, V7, V8, V9, V10, V14, V15, V16: different humanized anti-CD24 antibodies; hIgG: human IgG isotype control. FIG. 1A: anti-steatosis activity of SWA-11, Fab, TW2, TW6 and G7S; FIG. 1B: anti-steatosis activity of V2, V3, V4, V6, V7, V8, V9, V10, V14, V15, V16; FIG. 1C: anti-steatosis of SWA11, Fab, ML5, SN3, MOSW1, MOSW2, MOSW3; FIG. 1D: anti-steatosis of 3 small molecules that bind CD24.
# Specifically, Huh7 cells, which are liver hepatoma cells, were cultured in 1% DMSO (Huh7D cells) and then supplemented with fatty medium to induce steatosis. […] To determine the degree of steatosis, cells were stained with 1 mg/ml Nile Red solution (Sigma Aldrich) in cell culture medium for 15 mins at 37° C. and florescence signal was measured.
# [1] = test system: NSG mice with humanized livers; assay: NSG mice with humanized livers on HFD: graft survival, human albumin, CT; assay type: in vivo, mouse
# Protocol: In order to determine the effect of anti-CD24 agent in a more physiologic model of human fatty liver disease, we used a mouse model in which human liver can be engrafted. Briefly, NSG mice with humanized livers were prepared using the RAAPID-TKG method. These mice contain chimeric livers that harbor both murine and human hepatocytes and the degree of human liver engraftment can be ascertained by measuring serum human albumin. 2 mice with similar degrees of human liver engraftment, as measured by baseline serum human albumin, were placed on HFD for 6 weeks and then treated with either IgG control or an anti-CD24 antibody—which we term MOSW3—whose Fc has been engineered to contain point mutations that abrogate ADCC, ADCP, as well as compliment binding activity, i.e., Fc-silent antibody. Antibodies were dosed at 25 μg twice a week.
Molecule,anti-steatosis efficacy (relative lipid accumulation) (Huh7D cells),"steatosis on liver CT scan ([1]; 3 weeks post treatment, IgG treated mouse vs MOSW3 treated mouse)","human liver graft survival ([1]; HFD 6 weeks, then 25 μg twice a week, vs IgG control)","serum human albumin ([1]; humanized-liver NSG mice, HFD 6 weeks, then 25 μg twice a week, weekly serum for 3 weeks, vs IgG control)"
O=C(O)c1ccccc1C(=O)c1cn(-c2ccc(F)cc2)[n+]([O-])n1 [A],anti-steatosis efficacy,,,
Cc1cccc(-n2nc([N+](=O)[O-])c(NCc3ccc(F)cc3)[n+]2[O-])c1 [B],anti-steatosis efficacy,,,
B1,,The IgG treated mouse showed higher level of steatosis (FIG. 9B) compared to the MOSW3 treated mouse,longer graft survival,maintenance of serum human albumin
